System: Zucker diabetic rats, restenosis following vascular injury
Assay: Diabetic rat model of restenosis (balloon injury of left common carotid artery)
Format: in vivo
Settings: for Luminal area / Medial area: IP, 21 days
Experimental: In these experiments, balloon injury of left common carotid artery was performed in Zucker diabetic and nondiabetic rats using standard procedure. […] A maintenance dose was delivered every other day until day 7 after injury (i.e., at day 1, 3, 5 and 7 after injury). The maintenance dose was high=1 mg/animal for one group, or low=0.3 mg/animal for the second group. To measure vascular smooth muscle cell (VSMC) proliferation, animals were sacrificed at 4 days and 21 days after injury.
For the measurement of cell proliferation, 4 day animals received intraperitoneal injection of bromodeoxyuridine (BrDdU) 50 mg/kg at 18, 12, and 2 hours before euthanasia. After sacrifice, the entire left and right carotid arteries were harvested. Specimens were stored in Histochoice for at least 24 hours before embedding. Assessment of VSMC proliferation was performed using mouse anti-BrdU monoclonal antibody. A fluorescence labeled goat anti-mouse secondary antibody was applied. The number of BrdU-positive nuclei per section were counted by two observers blinded to the treatment regimens.
The remaining rats were sacrificed at 21 days for morphometric analysis. Morphometric analyses were performed by an observer blinded to the study groups, using computerized digital microscopic planimetry software Image-Pro Plus on serial sections, ([…]) carotid arteries stained by Van Gieson staining. All data were expressed as mean±SD. Statistical analysis was performed with use of SPSS software. Continuous variables were compared using unpaired t tests. A values of P≦0.05 was considered to be statistically significant.

[1] = High dose 1.0 mg/animal qod × 4, loading dose 3 mg/animal
[2] = Low dose 0.3 mg/animal qod × 4, loading dose 3 mg/animal

B1: TTP-4000: four domain RAGE fusion protein: human RAGE V and C1 domains with interdomain linkers (to residue 251) fused to human IgG1 CH2 and CH3; SEQ ID NO: 34/56 (protein, listed as Homo sapiens)
chain: QNITARIGEPLVLKCKGAPKKPPQRLEWKLNTGRTEAWKVLSPQGGGPWDSVARVLPNGSLFLPAVGIQDEGIFRCQAMNRNGKETKSNYRVRVYQIPGKPEIVDSASELTAGVPNKVGTCVSEGSYPAGTLSWHLDGKPLVPNEKGVSVKEQTRRHPETGLFTLQSELMVTPARGGDPRPTFSCSFSPGLPRHRALRTAPIQPRVWEPVPLEEVQLVVEPEGGAVAPPSVFLFPPKPKDTLMISRTPEVTCVVVDVSHEDPEVKFNWYVDGVEVHNAKTKPREEQYNSTYRVVSVLTVLHQDWLNGKEYKCKVSNKALPAPIEKTISKAKGQPREPQVYTLPPSRDELTKNQVSLTCLVKGFYPSDIAVEWESNGQPENNYKTTPPVLDSDGSFFLYSKLTVDKSRWQQGNVFSCSVMHEALHNHYTQKSLSLSPGK
- vascular smooth muscle cell proliferation (BrdU-positive nuclei) (4 days after injury, dose-responsive, FIG. 13B): significantly reduced
- Luminal area [1]: 0.16 ± 0.02 mm^2
- Medial area [1]: 0.11 ± 0.01 mm^2
- Luminal area [2]: 0.18 ± 0.04 mm^2
- Medial area [2]: 0.11 ± 0.02 mm^2

From US20090004190A1, “Rage Fusion Proteins And Methods Of Use” (priority 2006, published 2009)
